Experiments:
[1] = target: T1, Muc1 mucin carrying the CA6 sialoglycotope (human, UniProt P15941 24-1255, sialylated O-linked carbohydrate carrying the CA6 epitope; positions not stated); assay: flow cytometry on Caov-4 cells, apparent Kd
T1 construct: whole, on cells; Target of DS6 on CA6-positive human cell lines (flow cytometry) and in their lysates (dot blots, immunoprecipitation); also called CA6 antigen; DS6 antigen
Method: (§1) Cells ([…]) were incubated, on ice for 3-4 h, with serially diluted concentrations of the DS6 antibody prepared in FACS buffer (2% goat serum, RPMI) into 96-well plates. The cells were spun down in a table top centrifuge at 1500 rpm for 5 min at 4° C. After removing the media, the wells were then refilled with 150 μl of FACS buffer. The wash step was then repeated. FITC-labeled goat anti-mouse IgG (Jackson Immunoresearch) was diluted 1:100 to FACS buffer and incubated with the cells for 1 h on ice. The plate was covered in foil to prevent photobleaching of the signal. After two washes, the cells were fixed with 1% formaldehyde and analyzed on a flow cytometer.

[2] = target: T1, Muc1 mucin carrying the CA6 …; assay: flow cytometry on T-47D cells, apparent Kd
Method: (§2) Human cell lines were obtained from the American Type Culture Collection (ATCC) with the exception of OVCAR5 (Kearse et al., Int. J. Cancer 88(6):866-872 (2000)), OVCAR8 and IGROV1 cells (M. Seiden, Massachusetts General Hospital). All cells were grown in RPMI 1640 supplemented with 4 mM L-glutamine, 50 U/ml penicillin, 50 μg/ml streptomycin (Cambrex Bio Science, Rockland, Me.) and 10% v/v fetal bovine serum (Atlas Biologicals, Fort Collins, Colo.), referred hereafter as culture media. Cells were maintained in a 37° C., 5% CO₂ humidified incubator.
as §1

[3] = target: T1, Muc1 mucin carrying the CA6 …; assay: flow cytometry on ZR-75-1 cells, apparent Kd
Method: as §2, §1

[4] = target: T1, Muc1 mucin carrying the CA6 …; assay: flow cytometry on MDA-MB-468 cells, apparent Kd
Method: as §2, §1

[5] = target: T1, Muc1 mucin carrying the CA6 …; assay: flow cytometry on OVCAR5 cells, apparent Kd
Method: as §1

[6] = target: T1, Muc1 mucin carrying the CA6 …; assay: flow cytometry on HeLa cells
[7] = target: T1, Muc1 mucin carrying the CA6 …; assay: flow cytometry on BT-483 cells, apparent Kd
Method: as §1

[8] = target: T1, Muc1 mucin carrying the CA6 …; assay: flow cytometry on CAMA-1 cells, apparent Kd
Method: as §2, §1

[9] = target: T1, Muc1 mucin carrying the CA6 …; assay: flow cytometry on HPAC cells, apparent Kd
Method: as §1

[10] = target: T1, Muc1 mucin carrying the CA6 …; assay: flow cytometry on SU.86.86 cells, apparent Kd
Method: as §1

[11] = target: T1, Muc1 mucin carrying the CA6 …; assay: flow cytometry on HeLa cells, apparent Kd
Method: as §1

[12] = target: T1, Muc1 mucin carrying the CA6 …; assay: flow cytometry on KB cells, apparent Kd
[13] = target: T1, Muc1 mucin carrying the CA6 …; assay: flow cytometry on OVCAR5 cells, apparent Kd; remark: listed apart in the source
Method: as §2, §1

[14] = target: T1, Muc1 mucin carrying the CA6 …; assay: flow cytometry on HPAF-II cells, apparent Kd
Method: as §2, §1

[15] = target: T1, Muc1 mucin carrying the CA6 …; assay: flow cytometry on T-47D cells, apparent Kd; remark: listed apart in the source
Method: as §1

[16] = target: T1, Muc1 mucin carrying the CA6 …; assay: flow cytometry on SW1990 cells, apparent Kd
Method: as §2, §1

[17] = target: T1, Muc1 mucin carrying the CA6 …; assay: flow cytometry on PC-3 cells, apparent Kd
Method: as §2, §1

[18] = target: T1, Muc1 mucin carrying the CA6 …; assay: flow cytometry on BxPC-3 cells, apparent Kd
Method: as §2, §1

[19] = target: T1, Muc1 mucin carrying the CA6 …; assay: flow cytometry on TOV-21G cells, apparent Kd
Method: as §2, §1

[20] = target: T1, Muc1 mucin carrying the CA6 …; assay: flow cytometry on WISH cells, apparent Kd
Method: as §2, §1

[21] = target: T1, Muc1 mucin carrying the CA6 …; assay: flow cytometry on KB cells, apparent Kd; remark: listed apart in the source

B1: murine DS6 anti-CA6 monoclonal antibody (antibody, IgG1, V domains shown)
VH: QAYLQQSGAELVRSGASVKMSCKASGYTFTSYNMHWVKQTPGQGLEWIGYIYPGNGATNYNQKFKGKATLTADPSSSTAYMQISSLTSEDSAVYFCARGDSVPFAYWGQGTLVTVSA
VL: QIVLTQSPAIMSASPGEKVTITCSAHSSVSFMHWFQQKPGTSPKLWIYSTSSLASGVPARFGGSGSGTSYSLTISRMEAEDAATYYCQQRSSFPLTFGAGTKLELKR
notes: Whole murine monoclonal IgG from the DS6 hybridoma (ATCC PTA-4449); the 3' heavy chain cloning primer was BamIgG1 and the light chain primer was kappa; also called DS6 antibody; muDS6
[1]
  Kd: 4.04 nM
[2]
  Kd: 3.42 nM
[3]
  Kd: 4.3 nM
[4]
  Kd: 0.813 nM
[5]
  Kd: 1.47 nM
[6]
  Kd: 0.62 nM
[7]
  Kd: 13.7 nM
[8]
  Kd: 2.33 nM
[9]
  Kd: 23.5 nM
[10]
  Kd: 1.04 nM
[11]
  Kd: 0.694 nM
[12]
  Kd: 1.11 nM
[13]
  Kd: 1.47 nM
[14]
  Kd: 2.81 nM
[15]
  Kd: 3.42 nM
[16]
  Kd: 0.368 nM
[17]
  Kd: 0.136 nM
[18]
  Kd: 5.26 nM
[19]
  Kd: 0.307 nM
[20]
  Kd: 2.38 nM
[21]
  Kd: 0.111 nM

Reference: patent US20050123549A1 (IMMUNOGEN, published 2005)
